Experimental data from the DeepSol protein solubility set.

Assay: soluble on expression in E. coli; label from the status in PepcDB or PDB records

Sequence | soluble on expression in E. coli
MLVAERQQKIVEIVNMRSSIRVSELSDIFSVTEETIRRDLEKLEKEHKLSRSHGGAVSIQQKESEIHFSEREITNVIEKKAIAHEAAKYVKSGDRIILDASTTAWYMAKILPDIELTVITNSMKAAIELSNKENISVISTGGILLEKSLSFAGPLAERSLETYHVNKTFLSCKGFDVHNGMSDSNEWQALLKKRMIERSDQTILMADSSKWGNREFSHIASLQDVSRLITDSGLDPASVKALEDKKVKVTAVPLSKRGLEHHHHHH | soluble
MGKYFGTDGVRGVANSELTPELAFKVGRFGGYVLTKDKQRPKVLIGRDTRISGHMLEGALVAGLLSIGAEVMRLGVISTPGVSYLTKAMDAEAGVMISASHNPVQDNGIKFFGGDGFKLSDEQEAEIERLMDEPEDKLPRPVGADLGLVNDYFEGGQKYLQFLKQTADEDFTGIHVALDCANGATSSLATHLFADLDADVSTMGTSPNGLNINDGVGSTHPEALSAFVKEKNADLGLAFDGDGDRLIAVDEKGNIVDGDQIMYICSKHLKSEGRLKDDTVVSTVMSNLGFYKALEKEGIKSVQTAVGDRYVVEAMKKDGYNVGGEQSGHLIFLDYNTTGDGLLSAIMLMNTLKATGKPLSELAAEMQKFPQLLVNVRVTDKYKVEENEKVKAVISEVEKEMNGDGRILVRPSGTEPLVRVMAEAKTKELCDEYVNRIVEVVRSEMGLE | not soluble
MGHHHHHHSHMNGFSTEEDSREGPPAAPAAAAPGYGQSCCLIEDGERCVRPAGNASFSKRVQKSISQKKLKLDIDKSVRHLYICDFHKNFIQSVRNKRKRKTSDDGGDSPEHDTDIPEVDLFQLQVNTLRRYKRHYKLQTRPGFNKAQLAETVSRHFRNIPVNEKETLAYFIYMVKSNKSRLDQKSEGGKQLE | soluble
KVGLIIISHGRIATETVNVVKELLGVKFPVAIDMPLDEKPINIYNKAVELSKIIDQGKGILFLVDIGSLTNIGQIVNKRTNISTKTIDRVDLLMALEATRKVSMGEEELDEIFFSLLKDRMGYNYELEKHIDKS | not soluble
MGSDKIHHHHHHMATNTGHSNPKEALTFMNAPQLDIHQPRIAAFFDLDKTIIATSSALAYGREFMHSGLITPAEALQMSMAKATYMFSGYSSEQMDHTKNQLAHLITGWSEEQVREIANDTLQSVVAPAIYAEARDLIHMHQETGHDVVIISASARILVEAIAAELGVDQVVATELTVVDGKFTGEVPFYCKGAAKAQAILDLTDKRGYQLDRSFAYSDSITDLPMLEAVGNPRAVNPDRALKKVALDRDWEIHTFKNPVALFSKPTKRDLQISTGVAAGVAAVVGSVMWWKSLNGRSDRLRLSCTRDPGTQM | not soluble
MTVDDIMVPRSEIIGIDINDDWKSILRQLSHSPHGRIVLYRDSLDDAISMLRVREAWRLMSEKKEFTKETMLRAADEIYFVPEGTPLSTQLVKFQRNKKKVGLVVNEYGDIQGLVTVEDILEEIVGDFTTSMSPTLAEEVTPQNDGSVIIDGTANVREINKAFNWHLPEDDARTVNGVILEALEEIPVAGTRVRIGEYDIDILDVQDNMIKQVKVFPVKPLRESVAELEHHHHHH | soluble
MSNIAKTSEALQARIRELCGDQLREVGTHPGHWDDSAVRHIVRNPPAAYVVWLGHVPGEHPHVVQARWAVYVVANVLDGQRQNDPGIYQLVEKLSAGLHRCRIAPSGTFDVVLRQAAHLSCYRCKTCGPIRKAAWAWRFTACILKRRNRAITGEMMAQTKITLLAPHKHAGKQYQAGEVLSVDEQSAKFILNMGIGKPAEPVRKNPKLNTEDKQNAK | not soluble
SDRPLSVHLNLGQKGNRKTSCPIKINQFEGHFMKLQADSNYLLSKEYEELKDVGRNQSCDIALLPENRGKNRYNNILPYDATRVKLSNVDDDPCSDYINASYIPGNNFRREYIVTQGPLPGTKDDFWKMVWEQNVHNIVMVTQCVEKGRVKCDHYWPADQDSLYYGDLILQMLSESVLPEWTIREFKICGEEQLDAHRLIRHFHYTVWPDHGVPETTQSLIQFVRTVRDYINRSPGAGPTVVHCSAGVGRTGTFIALDRILQQLDSKDSVDIYGAVHDLRLHRVHMVQTECQYVYLHQCVRDVLRARKLRSEQ | soluble
MGSDKIHHHHHHMIIHKFIIHVLDKNSDTPILNDFEGRVSQDMDLFFQKKISKVSRDNDIRTAVFNDYSNNLIKKCCEQIIYDESSFLNSSKEIAAYLFDVMKLNATLESCDLAICLYSQKDEKKVAILKLDYNKSYTHSIEFKDDKFNIQMSKNEINIQETKTIKIGAIIGLSGVNDEYHLKVLDKDAEKEEVNSKFVTEFLNATKVKDDKYRTKMFKTFVDAYIANLYSDMKQGEDVRSILLYMLREKQNLDINEFADKAIKDDLKDSFKDHAEEKGIESFNIDKKWVEKNLKNRHIKTDTGFEVKGKMDDFEDFMKYGIRHNGNGTVDIVIKNVNFYDEK | not soluble
MGSDKIHHHHHHMFSQTIFFGMKQSARGVSVAFSTLQEASMHKRVLIQAASALLALQFMAVPVFAAGSSGGGSDQTVTQCKKGEVWDKKKKKCVAPQEGMLDDDSIYDAGHALAMAGRYDEAISVLTLAANKQDPRILNYLGYSHRHSGRVTVGLGYYEEALRIDPNYTLVREYLGEAHLQIGDLAGAQQQLMEIEKRTGKGSREYGMLSEQIDHFMRS | not soluble
MAAIGVHLGCTSACVAVYKDGRAGVVANDAGDRVTPAVVAYSENEEIVGLAAKQSRIRNISNTVMKVKQILGRSSSDPQAQKYIAESKCLVIEKNGKLRYEIDTGEETKFVNPEDVARLIFSKMKETAHSVLGSDANDVVITVPFDFGEKQKNALGEAARAAGFNVLRLIHEPSAALLAYGIGQDSPTGKSNILVFKLGGTSLSLSVMEVNSGIYRVLSTNTDDNIGGAHFTETLAQYLASEFQRSFKHDVRGNARAMMKLTNSAEVAKHSLSTLGSANCFLDSLYEGQDFDCNVSRARFELLCSPLFNKCIEAIRGLLDQNGFTADDINKVVLCGGSSRIPKLQQLIKDLFPAVELLNSIPPDEVIPIGAAIEAGILIGKENLLVEDSLMIECSARDILVKGVDESGASRFTVLFPSGTPLPARRQHTLQAPGSISSVCLELYESDGKNSAKEETKFAQVVLQDLDKKENGLRDILAVLTMKRDGSLHVTCTDQETGKCEAISIEIAS | not soluble
TIVKSEIIRKLMDAKKFLLDGYIDEGVKIVLEITKSSTKSEYNWFICNLLESIDCRYMFQVLDKIGSYFDLDKCQNLKSVVECGVINNTLNEHVNKALDILVIQGKRDKLEEIGREILKNNEVSASILVAIANALRRVGDERDATTLLIEACKKGEKEACNAVNTLTVRSVM | soluble
MAFGWHSMHGSIIWFLQIAQLSTAISHDQNATAVHFLISNLFFLVSTGALWFELCAIFCDSSSSTSILSTSLLMLNYFSLKFSATGERHLVATNIAHIEAHTSIVGFMISLFTPLKETIITKYEMLVRT | soluble
MNVSTSTFQTRRRRLKKVEEEENAATLQLGQEFQLKQINHQGEEEELIALNLSEARLVIKEALVERRRAFKRSQKKHKKKHLKHENANDETTAVEDEDDDLDEDDVNADDDDFMHSETREKELESIDVLLEQTTGGNNKDLKNTMQYLTNFSRFRDQETVGAVIQLLKSTGLHPFEVAQLGSLACDTADEAKTLIPSLNNKISDDELERILKELSNLETLY | soluble
GMTQKEWPLWEVFVRSKQGLEHKHCGSLHATDAQQALHMARDVYTRRQEGVSIWVVPSTAITASAPEEKPELFDPMADKIYRHPTFYQLPDEVNHM | soluble
MDNDKKDKIILSGELTNHRFNFTKDGENGYSAYEVDRFLDQLVHTLTHYEAQRNREEEMKTAYEKLFQDRDEILKRCSKLEAELNNFYENGYSNRVLISRVQALENKIESLPSGQNDRLERIEKLLKRVIKHWTDGEDLSYGDFDDDFF | soluble
FNRGGYNFGKSVRHVVDAIGSVAGIRGILKSIR | soluble
GCGVEEKTEVQLLKEMPKPKAMTIDPSLSQKEATEMVHAAQRFYAFWDTGKEELIPQTVTENFFDHTLPKGRPQGTEGLKFAAQNFRKIVPNIHCEIEDLLVVGDKVTARLSFTGTHNDKKIDFFAIDILHVKDGKITEDWHLEDNLTLKQQLGLIAEE | soluble
